B1: CLCN6 (parent)
chain: ILRSQLVTLLVRGVCYSESQSSAS
B2: VPS39 (parent)
chain: ITEEKVCMVCKKKIGNSAFARYPN

Variants of: B1
Assay: protein stability index of a GFP-peptide fusion (GPS, HEK-293T) (PSI 1-6); higher = more stable
Details: c terminus: a fixed tail appended
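Further: lentivirally expressed fusions sorted by FACS into six bins by GFP to DsRed ratio, PSI derived from sequencing read proportions per bin multiplied by bin number.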

Protein stability index, by site and new letter:
S22: D 1.44; H 3.54; Y 3.28; V 2.66; F 4.37; Q 3.86; A 1.76; N 1.92; R 3.39; M 3.01; P 2.17; T 2.11; I 2.29; K 3.18
E18: R 2.1; L 2.71; A 2.15; N 3.67; W 2.86; K 5.27; H 2.13; Y 2.54; T 4.5; M 2.09; G 3.04; P 3.08; I 3.81; Q 2.09; F 5.28; D 2.19
S24: D 2.68; K 2.49; V 2.87; T 2.7; W 2.9; G 3.21; Q 1.85; M 4.04; P 3.9; N 2.4; R 2.78; F 3.24
Q20: E 3.06; F 2.4; G 3.74; V 2.68; K 4.02; A 4.07; T 1.8; L 2.77; W 2.38; C 4.15; Y 3.72; D 1.56; H 2.27; I 1.93
S21: I 2.59; K 2.66; L 2.14; P 1.34; N 2.81; A 3.29; Y 2.89; F 2.54; W 3.14; M 2.12; E 4.5
A23: T 2; S 2.38; Q 3.96; D 4.03; K 2.29; M 2.75; Y 3; N 4.11; I 4.16; W 4.14; V 1.81; F 3.27; E 2.41; C 2.96; P 3.09; H 2.38
S19: D 2.21; P 1.82; A 4.08; F 3.38; T 4.83; L 3.29; Q 1.79; W 2.92; M 3.15; G 1.57; C 3.23; Y 2.44; H 3.62
S17: A 2.45; Q 1.98; K 2.16; E 2.11; T 2.24; P 2.5; N 3.71; G 2.54; D 2.43; F 2.25; Y 2.78; H 3; L 4.34; R 2.36; I 3.39

Variants of: B2
Assay: as above
Details: c terminus: a fixed tail appended

Protein stability index: each site, then its substitutions
K11: V 2.23; E 2.75; L 1.42; R 1.98; I 1.85; D 3.21; N 1.81; G 2.58; W 1.69; T 2.2; Y 2.12; A 2.19; F 1.54; M 1.66; P 2.76; H 1.74; Q 2.29; C 1.42; S 1.7
M8: A 2.91; Q 3.22; G 2.64; K 3.11; I 2.6; W 1.51; T 2.43; E 2.85; S 3.29; F 3.02; H 2.31; N 2.92; P 2.64; L 2.65; Y 1.94; V 3.23; D 2.95; C 2.44; R 2.39
V9: P 3.59; D 2.71; M 2.69; Y 1.99; A 3.05; R 3.61; K 3.58; Q 3.4; T 2.51; S 3.35; E 3.53; I 2.06; G 3.1; N 3.33; W 2.34; L 2.83; H 2.87; F 2.27
